Results taken from US20240207432A1 (BIOSION, published 2024).
Numbering of substitutions follows the chain as printed. Like-named read-outs stand apart in the source and are kept apart here.

Assays:
[1] = target: T1, human TROP2-his protein (human, UniProt P09758 27-274); test: SPR Biacore, compared with BM2
T1 construct: Biotin-labelled in the ELISAs, unlabelled analyte in Biacore; also called biotin-labeled human TROP2-his protein; biotin human Trop2-his
T1 sequence: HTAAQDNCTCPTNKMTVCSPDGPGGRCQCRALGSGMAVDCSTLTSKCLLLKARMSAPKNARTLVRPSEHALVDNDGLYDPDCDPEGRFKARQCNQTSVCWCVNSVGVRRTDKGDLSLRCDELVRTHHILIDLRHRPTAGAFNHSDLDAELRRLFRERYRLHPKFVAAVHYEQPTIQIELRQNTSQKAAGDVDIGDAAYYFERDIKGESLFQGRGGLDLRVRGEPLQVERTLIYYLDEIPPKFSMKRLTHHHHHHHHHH

[2] = target: T2, full length human TROP2 on 293F-TROP2 cells (human, UniProt P09758 27-323); test: FACS on 293F-TROP2 cells, MFI
T2 construct: also called 293F-TROP2 cells (clone ID #3A8); cell surface TROP2
T2 sequence: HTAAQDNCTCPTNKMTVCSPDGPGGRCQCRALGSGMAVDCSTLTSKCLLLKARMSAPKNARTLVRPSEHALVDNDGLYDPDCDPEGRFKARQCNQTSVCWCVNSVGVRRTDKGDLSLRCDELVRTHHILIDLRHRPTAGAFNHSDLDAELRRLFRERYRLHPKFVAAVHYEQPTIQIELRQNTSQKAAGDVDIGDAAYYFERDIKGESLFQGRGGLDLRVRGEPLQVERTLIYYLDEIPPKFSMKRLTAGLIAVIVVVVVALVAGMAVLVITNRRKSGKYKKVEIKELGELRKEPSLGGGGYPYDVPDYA

[3] = target: T1, human TROP2-his protein; test: SPR Biacore T200, supernatant antibody captured on anti-human IgG CM5 chip, 40 nM human TROP2-his
Method: The goat anti-human IgG (GE healthcare, Cat #BR100839, Human Antibody Capture Kit) was covalently linked to a CM5 chip instead of goat anti-mouse IgG. […] The human TROP2-his protein at the concentration of 40 nM was used instead of serially diluted human TROP2-his protein.

[4] = target: T1, human TROP2-his protein; test: capture ELISA, captured antibody, biotin human TROP2-his in solution, OD(450-630)
[5] = target: T1, human TROP2-his protein; test: competitive ELISA: mouse A1E4F7D4 coated at 2 ug/mL, antibody premixed with biotin human TROP2-his; blocked: binding of TROP2-his to coated A1E4F7D4 (self-competition)
Method: (§1) The mouse anti-TROP2 antibodies were tested for epitope binding in a competitive ELISA assay. […] ELISA plates were washed once with wash buffer (PBS+0.05% v/v Tween-20, PBST) and then blocked with 200 μl blocking buffer (5% w/v non-fatty milk in PBST) for 2 hours at 37° C. While blocking, the anti-TROP2 antibodies or controls were diluted with biotin labeled human TROP2-his protein (SEQ ID NO: 67, 34 ng/mL in 2.5% wA non-fatty milk in PBST), starting at 80 nM with a 5-fold serial dilution, and incubated at room temperature for 40 minutes. After plate washing for 4 times, the antibody/TROP2-his protein mixtures were added to the antibody coated plates, 100 μl per well. After incubation at 37° C. for 40 minutes, plates were washed 4 times again using wash buffer. Then the plates were added and incubated with 100 μl Peroxidase Streptavidin (1:10000 dilution in PBST buffer. Jackson Immunoresearch, Cat #016-030-084) for 40 minutes at 37° C. Plates were washed again using wash buffer. Finally, TMB was added and the reaction was stopped using 1M H₂SO₄. The absorbance of each well was read on a microplate reader using dual wavelength mode with 450 nm for TMB and 630 nm as the reference wavelength, and the OD (450-630) values were plotted against antibody concentration. Data was analyzed using Graphpad Prism software and IC₅₀ values were reported.

[6] = target: T1, human TROP2-his protein; test: capture ELISA, captured antibody, biotin human TROP2-his in solution, OD(450-630); remark: listed apart in the source
Method: (§2) Plates were washed once with wash buffer (PBS+0.05% v/v Tween-20, PBST) and then blocked with 200 μl/well blocking buffer (5% w/v non-fatty milk in PBST) for 2 hours at 37° C. […] Plates containing captured anti-TROP2 antibodies were incubated with biotin-labeled human TROP2-his protein (prepared in house, SEQ ID NO: 67, 56.7 ng/mL in 2.5% w/v non-fatty milk in PBST, 100 μl/well) for 40 minutes at 37° C., washed 4 times, and incubated with streptavidin conjugated HRP (1:10000 dilution in PBST, Jackson Immuno Research, Cat #016-030-084, 100 μl/well) for 40 minutes at 37° C. After a final wash, plates were incubated with 100 μl/well ELISA substrate TMB (Innoreagents, Cat #TMB-S-002) at room temperature. The reaction was stopped in 3-10 minutes at room temperature with 50 μl/well 1M H₂SO₄, and the absorbance of each well was read on a microplate reader using dual wavelength mode with 450 nm for TMB and 630 nm as the reference wavelength. The OD (450-630) values were plotted against antibody concentration. Data was analyzed using Graphpad Prism software and EC₅₀ values were reported.

[7] = target: T1, human TROP2-his protein; test: as above; remark: listed apart in the source
Method: as §2

[8] = target: T1, human TROP2-his protein; test: competitive ELISA: mouse A1E11A12D1 coated at 2 ug/mL, antibody premixed with biotin human TROP2-his; blocked: binding of TROP2-his to coated A1E11A12D1 (self-competition)
Method: as §1

[9] = target: T1, human TROP2-his protein; test: competitive ELISA: mouse A1H3C5H8E12 coated at 2 ug/mL, antibody premixed with biotin human TROP2-his; blocked: binding of TROP2-his to coated A1H3C5H8E12 (self-competition); no lower plateau reached at 80 nM
Method: as §1

B1: huA1E4F7D4-V16 (antibody, human IgG1, kappa, V domains shown)
VH: QVQLVQSGAEVKKPGASVKVSCKASGYSFTTHWIHWVRQAPGQGLEWIGTIFPSNAYAVYNQKFRDRATMTADTSISTAYIELSRLRSDDTAVYYCARASYFDYWGQGTTVTVSS
VL: EIVLTQSPATLSLSPGERATLSCRASQNIGTSIHWFQQKPGGAPRLLIKYASESISGIPSRFSGSGSGTDFTLTISSLEPEDFAVYYCQHSHSWPFTFGQGTKLEIKR
notes: Positions of the X residues are given in the claims; also called humanized antibody huA1E4F7D4-V16
For B1, the “fold higher affinity than BM2” value [1] was > 100 fold, the EC50 [2] was 0.362 nM and the Kd [3] was 0.137 nM. For the same binder, the koff [3] was 0.000175 s⁻¹ and the kon [3] was 1.28e+06 M⁻¹ s⁻¹.

B2: mouse antibody A1E4F7D4 (antibody, V domains shown)
VH: QVQLQQSGAELAKPGTSVKMSCEASGYSFTTHWIHWMKQRPGQGLEWIGTIFPSNAYAVYNQKFRDRAIMTADRSSTTAYIQLTGLTSEDSAVYYCARASYFDYWGQGTTLTVSS
VL: DILLTQSPATLSVSPGERVTFSCRASQNIGTSIHWFQQRTTGSPRLLIKYASESISGIPSRFSGSGSGTDFTLHINSVESEDIAHYYCQHSHSWPFTFGSGTKLEIQ
notes: Mouse monoclonal IgG purified from hybridoma supernatant; also called Mouse A1E4F7D4
With B2 the EC50 [4] was 0.147 nM and the IC50 [5] was 0.0675 nM.

B3: benchmark (in house prepared sacituzumab) (antibody, human IgG1, kappa, V domains shown)
VH: SVQLQQSGSELKKPGASVKVSCKASGYTFTNYGMNWVKQAPGQGLKWMGWINTYTGEPTYTDDFKGRFAFSLDTSVSTAYLQISSLKADDTAVYFCARGGFGSSYWYFDVWGQGSLVTVSS
VL: DIQLTQSPSSLSASVGDRVSITCKASQDVSIAVAWYQQKPGKAPKLLIYSASYRYTGVPDRFSGSGSGTDFTLTISSLQPEDFAVYYCQQHYITPLTFGAGTKVEIKR
notes: also called BM; BM1
B3 was tested, and the EC50 [6] was 0.141 nM and the EC50 [7] was 0.487 nM.

B4: mouse antibody A1E11A12D1 (antibody, V domains shown)
VH: QVQLQQSGAELARPGASVKLSCMASGYTFTTYGISWVRQRTGQGLEWIGQIYPGSDYSYCDEDFKGKATLTADKSSSTAYMQLSSLTSEDSAVYFCARASYFDYWGQGTTLTVSS
VL: DILLTQSPAILSVSPGERVSFSCRASQTIGTAIHWYQQRANGSPRLLIKYASESISGIPSRFSGSGSGTDFALSINTVESEDFAYYYCQQSNNWPFTFGGGTKLEIR
notes: Mouse monoclonal IgG purified from hybridoma supernatant
B4 showed an IC50 [8] of 1 nM.

B5: mouse antibody A1H3C5H8E12 (antibody, V domains shown)
VH: QVQLQQSGAELVRPGTSVKMSCKAAGYTFTNYWIDWVKQRPGHGLEWIGNIFPGGFYTNYNEKFKGKATLTADTSSSTAYMQLSSLTSEDSAIYYCARGGVFDYWGQGTTLTVSS
VL: B4 VL with T28S, A32S, A40T, A72T, T77S, F83I, Y85D, N93S, F96Y, R107K
notes: as for B4
B5 gave an IC50 [9] of 7 nM.
